Measurements reported in patent publication US20210054094A1 (Hoffmann-La Roche, published 2021).
One block for each binder: values may come before it.

Tests used:
Experiment in all cases: cell-based or functional assay
human GPRC5D [1] = biological target: T1, human GPRC5D (human, UniProt Q9NZD1 1-345)
human GPRC5D [2] = biological target: T1, human GPRC5D; remark: listed apart in the source
human GPRC5D [3] = biological target: T1, human GPRC5D; remark: listed apart in the source

T1 sequence (Q9NZD1 whole entry): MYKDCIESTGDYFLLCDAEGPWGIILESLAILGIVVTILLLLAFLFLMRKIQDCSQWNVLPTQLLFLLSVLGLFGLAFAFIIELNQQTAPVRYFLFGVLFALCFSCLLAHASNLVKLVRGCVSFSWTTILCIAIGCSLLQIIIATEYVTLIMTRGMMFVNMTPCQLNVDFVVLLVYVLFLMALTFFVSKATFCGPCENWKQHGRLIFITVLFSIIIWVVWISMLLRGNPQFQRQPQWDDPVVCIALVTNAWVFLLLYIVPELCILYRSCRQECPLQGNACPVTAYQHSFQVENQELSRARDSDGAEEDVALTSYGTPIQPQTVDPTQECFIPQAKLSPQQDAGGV

B1: P1AE5717 (antibody, V domains shown)
VH: ELQLLESGGGLVQPGGSLRLSCAASGFTFSKYAMAWVRQAPGKGLEWVASISTGGVNTYYRDSVKARFTISRDNAKNTLYLQMNSLRAEDTAVYYCATHTGDYFDYWGQGTMVTVSS
VL: EIVLTQSPGTLSLSPGERATLSCRASQSVSISGINLMNWYQQKPGQQPKLLIYHASILASGIPDRFSGSGSGTDFTLTISRLEPEDFAVYYCQQTRESPLTFGQGTRLEIK
CAR-J2 EC50 (PGLALA-CAR-J activation, L363 target cells) (human GPRC5D [1]): 79.9 ng/mL

B2: P1AE5718 (antibody, V domains shown)
VH: ELQLLESGGGLVQPGGSLRLSCAASGFTFSKYAMAWVRQAPGKGLEWVASISTGGVNTYYRDSVKARFTISRDNAKNTLYLQMNSLRAEDTAVYYCATHTGDYFDYWGQGTMVTVSS
VL: DIQMTQSPSSLSASVGDRVTITCRASQSVSISGINLMNWYQQKPGKQPKLLIYHASILASGVPSRFSGSGSGTDFTLTISSLQPEDFATYYCQQTRESPLTFGQGTRLEIK
CAR-J2 EC50 (PGLALA-CAR-J activation, L363 target cells) (human GPRC5D [1]): 105 ng/mL

B7: P1AE5712 (antibody, V domains shown)
VH: EVQLLESGGGLVQPGGSLRLSCAASGFTFSKYAMAWVRQAPGKGLEWVASISTGGVNTYYRDSVKARFTISRDNSKNTLYLQMNSLRAEDTAVYYCATHTGDYFDYWGQGTMVTVSS
VL: DIQMTQSPSSLSASVGDRVTITCRASQSVSISGINLMNWYQQKPGKQPKLLIYHASILASGVPSRFSGSGSGTDFTLTISSLQPEDFATYYCQQTRESPLTFGQGTRLEIK
CAR-J2 EC50 (PGLALA-CAR-J activation, L363 target cells) (human GPRC5D [1]): 16.1 ng/mL

B8: P1AE5719 (antibody, V domains shown)
VH: ELQLLESGGGLVQPGGSLRLSCAASGFTFSKYAMAWVRQAPGKGLEWVASISTGGVNTYYRDSVKARFTISRDNAKNTLYLQMNSLRAEDTAVYYCATHTGDYFDYWGQGTMVTVSS
VL: DIQMTQSPSSLSASVGDRVTITCRASQSVSISGINLMNWYQQKPGQQPKLLIYHASILASGVPSRFSGSGSGTDFTLTISSLQPEDFATYYCQQTRESPLTFGQGTRLEIK
CAR-J2 EC50 (PGLALA-CAR-J activation, L363 target cells) (human GPRC5D [1]): 2.8 ng/mL

B10: P1AE5722 (antibody, V domains shown)
VH: EVQLLESGGGLVQPGGSLRLSCAASGFTFSKYAMAWVRQAPGKGLEWVASISTGGVNTYYADSVKGRFTISRDNSKNTLYLQMNSLRAEDTAVYYCATHTGDYFDYWGQGTMVTVSS
VL: EIVLTQSPGTLSLSPGERATLSCRASQSVSISGINLMNWYQQKPGQQPRLLIYHASILASGIPDRFSGSGSGTDFTLTISRLEPEDFAVYYCQQTRESPLTFGQGTRLEIK
CAR-J2 EC50 (PGLALA-CAR-J activation, L363 target cells) (human GPRC5D [1]): 4.6 ng/mL

B13: 5E11-TCB (bispecific antibody, human IgG1, kappa, L234A L235A)
light 1: DIVLTQSPALAVSPGQRATISCRASQSVSISGINLMNWYQQKPGQQPKLLIYHASILASGIPTRFSGSGSGTDFTLTIDPVQADDIATYYCQQTRESPLTFGSGTNLEIKRTVAAPSVFIFPPSDRKLKSGTASVVCLLNNFYPREAKVQWKVDNALQSGNSQESVTEQDSKDSTYSLSSTLTLSKADYEKHKVYACEVTHQGLSSPVTKSFNRGEC
light 2: EVQLLESGGGLVQPGGSLRLSCAASGFTFSTYAMNWVRQAPGKGLEWVSRIRSKYNNYATYYADSVKGRFTISRDDSKNTLYLQMNSLRAEDTAVYYCVRHGNFGNSYVSWFAYWGQGTLVTVSSASVAAPSVFIFPPSDEQLKSGTASVVCLLNNFYPREAKVQWKVDNALQSGNSQESVTEQDSKDSTYSLSSTLTLSKADYEKHKVYACEVTHQGLSSPVTKSFNRGEC
heavy 1: ELQLEQSGGGLVQPGGSLTLSCAASGFTFSKYAMAWVRQAPTKGLEWVASISTGGVNTYYRDSVKARFTISRDNAKNTQYLQMDSLRSEDTATYYCATHTGDYFDYWGQGVMVTVSSASTKGPSVFPLAPSSKSTSGGTAALGCLVEDYFPEPVTVSWNSGALTSGVHTFPAVLQSSGLYSLSSVVTVPSSSLGTQTYICNVNHKPSNTKVDEKVEPKSCDKTHTCPPCPAPEAAGGPSVFLFPPKPKDTLMISRTPEVTCVVVDVSHEDPEVKFNWYVDGVEVHNAKTKPREEQYNSTYRVVSVLTVLHQDWLNGKEYKCKVSNKALGAPIEKTISKAKGQPREPQVCTLPPSRDELTKNQVSLSCAVKGFYPSDIAVEWESNGQPENNYKTTPPVLDSDGSFFLVSKLTVDKSRWQQGNVFSCSVMHEALHNHYTQKSLSLSPGK
heavy 2: not shown
EC50 of in vitro killing, AMO-1 cells (human GPRC5D [2]): 0.008 nM
EC50 of in vitro killing, EJM cells (human GPRC5D [2]): 0.011 nM
EC50 of in vitro killing, L363 cells (human GPRC5D [2]): 0.017 nM
EC50 of in vitro killing, MOLP-2 cells (human GPRC5D [2]): 0.018 nM
EC50 of in vitro killing, NCI-H929 cells (human GPRC5D [2]): 0.007 nM
EC50 of in vitro killing, OPM-2 cells (human GPRC5D [2]): 0.002 nM
EC50 of in vitro killing, RPMI cells (human GPRC5D [2]): 0.064 nM
EC50 of T cell cytotoxicity (LDH release) on AMO-1 cells (human GPRC5D [3]): 0.014 nM
EC50 of T cell cytotoxicity (LDH release) on L363 cells (human GPRC5D [3]): 0.012 nM
EC50 of T cell cytotoxicity (LDH release) on NCI-H929 cells (human GPRC5D [3]): 0.007 nM
EC50 of T cell cytotoxicity (LDH release) on RPMI-8226 cells (human GPRC5D [3]): 0.024 nM

B14: ET150-5-TCB (bispecific antibody, human IgG1, lambda, L234A L235A)
light 1: QSVLTQPPSASGTPGQRVTISCSGSRSNVGGNYVFWYQQVPGATPKLLIYRSNQRPSGVPDRFAGSKSGSSASLAISGLRSEDEADYYCATWDDSLSGFVFGTGTKVTVLGQPKAAPSVTLFPPSSKKLQANKATLVCLISDFYPGAVTVAWKADSSPVKAGVETTTPSKQSNNKYAASSYLSLTPEQWKSHRSYSCQVTHEGSTVEKTVAPTECS
light 2: EVQLLESGGGLVQPGGSLRLSCAASGFTFSTYAMNWVRQAPGKGLEWVSRIRSKYNNYATYYADSVKGRFTISRDDSKNTLYLQMNSLRAEDTAVYYCVRHGNFGNSYVSWFAYWGQGTLVTVSSASVAAPSVFIFPPSDEQLKSGTASVVCLLNNFYPREAKVQWKVDNALQSGNSQESVTEQDSKDSTYSLSSTLTLSKADYEKHKVYACEVTHQGLSSPVTKSFNRGEC
heavy 1: EVQLVESGGGLVKPGGSLRLSCAASGFTFSDYYMSWIRQAPGKGLEWVSYISSSGSTIYYADSVKGRFTISRDNAKNSLYLQMNSLRAEDTAVYYCARGYGKAYDQWGQGTLVTVSSASTKGPSVFPLAPSSKSTSGGTAALGCLVEDYFPEPVTVSWNSGALTSGVHTFPAVLQSSGLYSLSSVVTVPSSSLGTQTYICNVNHKPSNTKVDEKVEPKSCDKTHTCPPCPAPEAAGGPSVFLFPPKPKDTLMISRTPEVTCVVVDVSHEDPEVKFNWYVDGVEVHNAKTKPREEQYNSTYRVVSVLTVLHQDWLNGKEYKCKVSNKALGAPIEKTISKAKGQPREPQVCTLPPSRDELTKNQVSLSCAVKGFYPSDIAVEWESNGQPENNYKTTPPVLDSDGSFFLVSKLTVDKSRWQQGNVFSCSVMHEALHNHYTQKSLSLSPGK
heavy 2: not shown
EC50 of T cell cytotoxicity (LDH release) on AMO-1 cells (human GPRC5D [3]): 0.0835 nM
EC50 of T cell cytotoxicity (LDH release) on L363 cells (human GPRC5D [3]): 0.768 nM
EC50 of T cell cytotoxicity (LDH release) on NCI-H929 cells (human GPRC5D [3]): 0.833 nM
EC50 of T cell cytotoxicity (LDH release) on RPMI-8226 cells (human GPRC5D [3]): 0.797 nM

Second part, the binder after the results:

CAR-J2 EC50 (PGLALA-CAR-J activation, L363 target cells) (human GPRC5D [1]): 3.6 ng/mL
B3: P1AE5724 (antibody, V domains shown)
VH: EVQLLESGGGLVQPGGSLRLSCAASGFTFSKYAMAWVRQAPGKGLEWVASISTGGVNTYYADSVKGRFTISRDNSKNTLYLQMNSLRAEDTAVYYCATHTGDYFDYWGQGTMVTVSS
VL: DIQMTQSPSSLSASVGDRVTITCRASQSVSISGINLMNWYQQKPGKQPKLLIYHASILASGVPSRFSGSGSGTDFTLTISSLQPEDFATYYCQQTRESPLTFGQGTRLEIK

CAR-J2 EC50 (PGLALA-CAR-J activation, L363 target cells) (human GPRC5D [1]): 10.9 ng/mL
B4: P1AE5725 (antibody, V domains shown)
VH: EVQLLESGGGLVQPGGSLRLSCAASGFTFSKYAMAWVRQAPGKGLEWVASISTGGVNTYYADSVKGRFTISRDNSKNTLYLQMNSLRAEDTAVYYCATHTGDYFDYWGQGTMVTVSS
VL: DIQMTQSPSSLSASVGDRVTITCRASQSVSISGINLMNWYQQKPGQQPKLLIYHASILASGVPSRFSGSGSGTDFTLTISSLQPEDFATYYCQQTRESPLTFGQGTRLEIK

CAR-J2 EC50 (PGLALA-CAR-J activation, L363 target cells) (human GPRC5D [1]): 2.3 ng/mL
B5: P1AE5731 (antibody, V domains shown)
VH: ELQLLESGGGLVQPGGSLRLSCAASGFTFSKYAMAWVRQAPGKGLEWVASISTGGVNTYYADSVKGRFTISRDNAKNTLYLQMNSLRAEDTAVYYCATHTGDYFDYWGQGTMVTVSS
VL: DIQMTQSPSSLSASVGDRVTITCRASQSVSISGINLMNWYQQKPGQQPKLLIYHASILASGVPSRFSGSGSGTDFTLTISSLQPEDFATYYCQQTRESPLTFGQGTRLEIK

CAR-J2 EC50 (PGLALA-CAR-J activation, L363 target cells) (human GPRC5D [1]): 3.5 ng/mL
B6: P1AE5730 (antibody, V domains shown)
VH: ELQLLESGGGLVQPGGSLRLSCAASGFTFSKYAMAWVRQAPGKGLEWVASISTGGVNTYYADSVKGRFTISRDNAKNTLYLQMNSLRAEDTAVYYCATHTGDYFDYWGQGTMVTVSS
VL: DIQMTQSPSSLSASVGDRVTITCRASQSVSISGINLMNWYQQKPGKQPKLLIYHASILASGVPSRFSGSGSGTDFTLTISSLQPEDFATYYCQQTRESPLTFGQGTRLEIK

CAR-J2 EC50 (PGLALA-CAR-J activation, L363 target cells) (human GPRC5D [1]): 3.7 ng/mL
B9: P1AE5723 (antibody, V domains shown)
VH: EVQLLESGGGLVQPGGSLRLSCAASGFTFSKYAMAWVRQAPGKGLEWVASISTGGVNTYYADSVKGRFTISRDNSKNTLYLQMNSLRAEDTAVYYCATHTGDYFDYWGQGTMVTVSS
VL: EIVLTQSPGTLSLSPGERATLSCRASQSVSISGINLMNWYQQKPGQQPKLLIYHASILASGIPDRFSGSGSGTDFTLTISRLEPEDFAVYYCQQTRESPLTFGQGTRLEIK

CAR-J2 EC50 (PGLALA-CAR-J activation, L363 target cells) (human GPRC5D [1]): 61.3 ng/mL
B11: P1AE5729 (antibody, V domains shown)
VH: ELQLLESGGGLVQPGGSLRLSCAASGFTFSKYAMAWVRQAPGKGLEWVASISTGGVNTYYADSVKGRFTISRDNAKNTLYLQMNSLRAEDTAVYYCATHTGDYFDYWGQGTMVTVSS
VL: EIVLTQSPGTLSLSPGERATLSCRASQSVSISGINLMNWYQQKPGQQPKLLIYHASILASGIPDRFSGSGSGTDFTLTISRLEPEDFAVYYCQQTRESPLTFGQGTRLEIK

CAR-J2 EC50 (PGLALA-CAR-J activation, L363 target cells) (human GPRC5D [1]): 5.6 ng/mL
B12: P1AE5728 (antibody, V domains shown)
VH: ELQLLESGGGLVQPGGSLRLSCAASGFTFSKYAMAWVRQAPGKGLEWVASISTGGVNTYYADSVKGRFTISRDNAKNTLYLQMNSLRAEDTAVYYCATHTGDYFDYWGQGTMVTVSS
VL: EIVLTQSPGTLSLSPGERATLSCRASQSVSISGINLMNWYQQKPGQQPRLLIYHASILASGIPDRFSGSGSGTDFTLTISRLEPEDFAVYYCQQTRESPLTFGQGTRLEIK
